Data on 13 molecules can be found in patent US20240092920A1 (KEYMED BIOSCIENCES, published 2024).

T1: recombinant protein of human IL-4Rα extracellular region (human, UniProt P24394 26-232)
T1 construct: range 26-232; Made in HEK293-6E cells, purified on nickel chelate; Used biotin-labeled on SA probes in the Fortebio assays and unlabeled as ELISA coat; also called hIL-4Rα; IL-4Rα recombinant protein
T1 sequence: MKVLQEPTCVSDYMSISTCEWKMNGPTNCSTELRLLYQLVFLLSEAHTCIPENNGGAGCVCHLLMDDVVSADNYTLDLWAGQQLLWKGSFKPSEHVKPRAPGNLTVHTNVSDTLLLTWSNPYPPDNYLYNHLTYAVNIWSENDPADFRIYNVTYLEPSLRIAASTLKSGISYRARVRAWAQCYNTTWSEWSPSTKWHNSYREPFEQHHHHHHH

B1: Clone 25D6 (antibody, V domains shown)
VH: QVQLQQSGAELVKPGASVKMSCKASVNTFTGYNMHWVKQTPGQGLEWIGGLHPGNGDTSYNQKFKGKATLTADKSSNTAYMQLSSLTSEDSAVYYCALTTAGRAWFAYWGQGTLVTVSA
VL: DIQMTQSTSSLSASLGDRVTISCRASQDISNYLNWYQQKPDGTVKLLIYYTSRLHSGVPSRFSGSGSGTDYSLTISNLEQEDIATYFCQQGNTLPWTFGGGTKLEIK
notes: Chimeric IgG: mouse variable regions on human heavy and light chain constant regions (section 6)
B2: Clone 1D8 (antibody, V domains shown)
VH: B1 VH with K23T, S25T, V26G, T28I, V37I, K67R, N77S, T78S
VL: DIQMTQTTSSLSASLGDRVTISCRASQDISNYLNWYQQKPDGTVKLLIYYTSRLHSGVPSRFSGSGSGTDYSLTISNLEQEDIATYFCQQGNTLHTFGGGTKLEIK
notes: as for B1
B3: Clone 36F4 (antibody, V domains shown)
VH: B1 VH with T28I, G66D, K74R
VL: DIKMTQSTSSLSASLGDRVTISCRASQDISNYLNWYQQKPDGTVKLLIYYTSRLHSGVPSRFSGSGSGTDYSLTISNLEQEDIATYFCQQGNTLPPWTFGGGTKLEIK
notes: as for B1
B4: Clone 34H11 (antibody, V domains shown)
VH: B1 VH with Q6E
VL: B1 VL with S7T, I83V
notes: as for B1
B5: Clone 2H1 (antibody, V domains shown)
VH: B1 VH with A9T, V37I, T58S, K67R, A107P
VL: B1 VL with T5I, S63R, W96L, G100A, I106L
notes: as for B1
B6: Clone 35D5 (antibody, V domains shown)
VH: B1 VH with Q5K
VL: B1 VL
notes: as for B1
B7: Clone 31B9 (antibody, V domains shown)
VH: B1 VH with Q1E, T28I, G66D, K74R
VL: B1 VL
notes: as for B1
B8: Clone 1A6 (antibody, V domains shown)
VH: B1 VH with A9T, V37I, T58S, K67R, A107P
VL: B1 VL with S7T, W96P
notes: as for B1
B9: Clone 35A7 (antibody, V domains shown)
VH: B1 VH with Q5K, K23T, V26G, T28I, T30S, V37I
VL: B1 VL with T5N, V44I, H55Y, Q80E, L94I, W96Y
notes: Chimeric IgG (section 6)
B10: Clone 25G9 (antibody, V domains shown)
VH: B1 VH with Q1E, Q5K, Q6E, T28I, G66D, K74R
VL: B1 VL with K103R
notes: as for B1
B11: Clone 1H9 (antibody, V domains shown)
VH: B1 VH with T30A
VL: B1 VL with T5I
notes: as for B1
B12: Clone 34A2 (antibody, V domains shown)
VH: B1 VH with Q1E, T28I, G31S, K63N, N77S, L83V, S85N, A97V
VL: B1 VL
notes: as for B1
B13: Clone 24G10 (antibody, V domains shown)
VH: EVKLVESGGGLVKPGGSLKLSCAASGFTFSRYAMSWVRQTPEKRLEWVATISSGGSYTNYSDSVKGRFTISRDNVKNTLYLQMSSLKSEDSAMYYCARATARATEFAYWGQGTLVTVSA
VL: DIQMTQSTSSLSASLGDRVTISCRASQDISNYLNWYQQKPDGTVKLLIYYTSRLYSGVPSRFSGSGSGTDYSLTISNLEQEDIATYFCQQGNTLPPTFGGGTKLEI
notes: as for B1

Usually Kd stands for the constant that tells how readily two partners part at equilibrium. In general, koff refers to the first-order rate constant of dissociation. One may read the kon as the rate constant with which the complex forms.

Where a chain is given by its changes, count along the chain named. A value given as a limit tells only on which side of the number the result lay.

This test addresses T1, recombinant protein of human IL-4Rα …. In words: BLI (Fortebio), biotin-labeled hIL-4Rα on SA probe, antibody 50-3.125 ug/ml. The method, then: PBS is added to any column of the 96-well plate, 100 ul/well, and the 96-well plate is placed in the probe holder cassette. When taking the probe, be careful to completely hang it on the holder to prevent the probe from touching the holder. The immobilized biotin-labeled hIL-4Rα is diluted to 5 ug/ml with PBS; a new 96-well plate is taken, and the diluted immobilized material is added column by column, 100 ul/well. […] A new 96-well plate is taken, and PBS is added to columns 1 and 2, 100 ul/well (the same buffer for both baseline and dissociation); the diluted immobilized material is added to column 3; the analyte diluted according to the series is added to column 4; 10 mM HCl (pH 1.9) is added to column 11; and PBS is added to column 12. The SA probe binds very strongly to the immobilized biotin material. When regenerated, the immobilized material is still bound to the probe, so it can be reused after immobilizing only once. Then the experimental method is set up in the Fortebio software, and then the experimental program is run for detection.
(In general: BLI is a label-free optical method that tracks binding on a fibre tip over time.)
Turning to B1, the Kd is 5.9 nM, the koff came out at 0.000157 s⁻¹ and the kon was 26500 M⁻¹ s⁻¹.

Turning to B2, the dissociation constant Kd came out at 8.06 nM, the koff came out at 0.000566 s⁻¹ and the kon worked out at 70100 M⁻¹ s⁻¹.

As for B3, the Kd came to 1.8 nM, the koff is 9.37e-05 s⁻¹ and the on-rate constant (kon) is 50900 M⁻¹ s⁻¹.

Take B4: the dissociation constant (Kd) was determined as 6.6 nM, the koff came to 0.000176 s⁻¹ and the kon amounted to 26900 M⁻¹ s⁻¹.

For B5, the Kd was 5.27 nM, the koff came out at 0.000377 s⁻¹ and the kon was 71600 M⁻¹ s⁻¹.

For the molecule B6, the Kd was 1.3 nM, the koff is 5.05e-05 s⁻¹ and the kon amounted to 38700 M⁻¹ s⁻¹.

For B7, the Kd stood at 1.9 nM, the koff was 6.28e-05 s⁻¹ and the kon was found to be 33000 M⁻¹ s⁻¹.

Regarding B8, the Kd is 11.3 nM, the off-rate (koff) was determined as 0.000602 s⁻¹ and the kon is 53000 M⁻¹ s⁻¹.

As for B9, the Kd was below 0.001 nM, the koff was below 1e-07 s⁻¹ and the kon came out at 24700 M⁻¹ s⁻¹.

As for B10, the Kd was below 0.001 nM, the koff is below 1e-07 s⁻¹ and the kon was found to be 37900 M⁻¹ s⁻¹.

Consider B11, for which the Kd turned out to be 8.9 nM, the off-rate (koff) turned out to be 0.000262 s⁻¹ and the kon was 29300 M⁻¹ s⁻¹.

For B12, the Kd was below 0.001 nM, the koff is below 1e-07 s⁻¹ and the association rate constant (kon) is 29000 M⁻¹ s⁻¹.

For the molecule B13, the equilibrium dissociation constant (Kd) was 0.94 nM, the koff amounted to 2.37e-05 s⁻¹ and the kon is 25300 M⁻¹ s⁻¹.
